Measurements from patent US20110306105A1 (University of California, published 2011).

Experiments:
[1] = target: T1, scaffoldin Scaf-ct displayed on the yeast cell surface (chimeric: C. cellulolyticum, C. …); experiment: immunofluorescence microscopy with anti-His6 on yeast displaying Scaf-ct incubated with E. coli lysate
T1 construct: also called Sacf-ct; not shown: yeast surface display anchor of vector pCTCON2; C-terminal c-Myc tag
T1 chain: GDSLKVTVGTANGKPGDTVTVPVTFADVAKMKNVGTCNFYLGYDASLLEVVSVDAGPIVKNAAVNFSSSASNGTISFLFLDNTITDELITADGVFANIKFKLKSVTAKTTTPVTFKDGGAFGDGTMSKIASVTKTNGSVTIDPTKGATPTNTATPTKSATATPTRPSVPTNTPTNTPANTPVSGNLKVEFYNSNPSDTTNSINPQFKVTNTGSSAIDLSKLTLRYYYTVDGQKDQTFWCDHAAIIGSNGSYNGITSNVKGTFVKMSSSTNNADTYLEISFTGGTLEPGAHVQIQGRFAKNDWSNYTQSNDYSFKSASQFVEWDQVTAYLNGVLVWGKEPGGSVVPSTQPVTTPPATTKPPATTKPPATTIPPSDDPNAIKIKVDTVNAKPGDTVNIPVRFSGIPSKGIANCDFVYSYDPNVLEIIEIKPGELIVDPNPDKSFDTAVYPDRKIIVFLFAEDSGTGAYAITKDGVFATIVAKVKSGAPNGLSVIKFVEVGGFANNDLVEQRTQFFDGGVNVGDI

[2] = target: T2, scaffoldin Scaf-c displayed on the yeast cell surface (chimeric: C. cellulolyticum cohesin …); experiment: immunofluorescence microscopy with anti-His6 on yeast displaying Scaf-c incubated with E. coli lysate
T2 construct: also called Sacf-c; not shown: yeast surface display anchor of vector pCTCON2; C-terminal c-Myc tag
T2 chain: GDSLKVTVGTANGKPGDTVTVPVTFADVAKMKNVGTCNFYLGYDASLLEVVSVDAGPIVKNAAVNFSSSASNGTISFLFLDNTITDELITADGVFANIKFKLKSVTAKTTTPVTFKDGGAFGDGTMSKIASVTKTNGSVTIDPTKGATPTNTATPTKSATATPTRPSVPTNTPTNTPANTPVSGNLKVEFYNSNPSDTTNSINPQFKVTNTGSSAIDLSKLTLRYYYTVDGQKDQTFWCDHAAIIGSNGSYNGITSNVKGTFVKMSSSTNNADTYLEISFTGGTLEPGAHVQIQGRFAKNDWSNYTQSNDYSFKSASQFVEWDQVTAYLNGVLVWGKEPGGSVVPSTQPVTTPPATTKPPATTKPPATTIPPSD

[3] = target: T3, trifunctional scaffoldin Scaf-ctf displayed on the yeast (S. cerevisiae EBY100) cell surface (chimeric: C. cellulolyticum, C. …, Displayed on the S. cerevisiae EBY100 cell surface through an N-terminal anchor fusion, which the letters do not carry.); experiment: immunofluorescence microscopy, yeast displaying Scaf-ctf incubated with E. coli lysate
T3 construct: also called Sacf-ctf; SCAF6; not shown: N-terminal yeast display anchor and linker of vector pCTCON2 (called the GPI anchor); C-terminal c-Myc tag; the vector junctions; possibly a His stretch carried over from pETscaf6, since reverse primer R1SalI anneals on His codons
T3 chain: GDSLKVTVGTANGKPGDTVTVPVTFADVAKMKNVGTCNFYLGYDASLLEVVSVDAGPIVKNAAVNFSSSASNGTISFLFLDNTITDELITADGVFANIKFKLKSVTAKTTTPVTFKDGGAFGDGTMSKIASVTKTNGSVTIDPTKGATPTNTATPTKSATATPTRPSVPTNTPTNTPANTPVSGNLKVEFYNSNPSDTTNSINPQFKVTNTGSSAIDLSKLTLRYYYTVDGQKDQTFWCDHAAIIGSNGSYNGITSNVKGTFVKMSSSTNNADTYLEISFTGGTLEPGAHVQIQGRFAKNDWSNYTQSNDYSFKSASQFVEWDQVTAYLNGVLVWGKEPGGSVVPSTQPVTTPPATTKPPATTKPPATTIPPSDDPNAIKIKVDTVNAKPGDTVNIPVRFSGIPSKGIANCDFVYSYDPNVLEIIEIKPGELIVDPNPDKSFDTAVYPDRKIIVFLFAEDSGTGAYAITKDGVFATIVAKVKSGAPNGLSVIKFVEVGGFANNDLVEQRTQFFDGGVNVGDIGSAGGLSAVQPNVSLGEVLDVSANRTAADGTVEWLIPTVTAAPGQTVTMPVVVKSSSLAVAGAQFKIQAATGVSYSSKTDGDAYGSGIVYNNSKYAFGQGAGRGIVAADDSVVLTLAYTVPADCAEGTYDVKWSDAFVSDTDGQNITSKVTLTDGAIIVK

B1: endoglucanase CelG from C. cellulolyticum fused to a dockerin domain from R. flavefaciens (Gf), His6-tagged (enzyme)
chain: MGTYNYGEALQKSIMFYEFQRSGDLPADKRDNWRDDSGMKDGSDVGVDLTGGWYDAGDHVKFNLPMSYTSAMLAWSLYEDKDAYDKSGQTKYIMDGIKWANDYFIKCNPTPGVYYYQVGDGGKDHSWWGPAEVMQMERPSFKVDASKPGSAVCASTAASLASAAVVFKSSDPTYAEKCISHAKNLFDMADKAKSDAGYTAASGYYSSSSFYDDLSWAAVWLYLATNDSTYLDKAESYVPNWGKEQQTDIIAYKWGQCWDDVHYGAELLLAKLTNKQLYKDSIEMNLDFWTTGVNGTRVSYTPKGLAWLFQWGSLRHATTQAFLAGVYAEWEGCTPSKVSVYKDFLKSQIDYALGSTGRSFVVGYGVNPPQHPHHRTAHGSWTDQMTSPTYHRHTIYGALVGGPDNADGYTDEINNYVNNEIACDYNAGFTGALAKMYKHSGGDPIPNFKAIEKITNDEVIIKAGLNSTGPNYTEIKAVVYNQTGWPARVTDKISFKYFMDLSEIVAAGIDPLSLVTSSNYSEGKNTKVSGVLPWDVSNNVYYVNVDLTGENIYPGGQSACRREVQFRIAAPQGRRYWNPKNDFSYDGLPTTSTVNTVTNIPVYDNGVKVFGNEPAGGSEPGTKLVPTWGDTNCDGVVNVADVVVLNRFLNDPTYSNITDQGKVNADVVDPQDKSGAAVDPAGVKLTVADSEAILKAIVELITLPQHHHHHH
notes: Expressed in E. coli; also called CelG-Df
binding result [1]: no binding
binding result [2]: no binding

B2: exoglucanase CelE from C. cellulolyticum fused to a dockerin domain from the same species (Ec), His6-tagged (enzyme)
chain: MLVGAGDLIRNHTFDNRVGLPWHVVESYPAKASFEITSDGKYKITAQKIGEAGKGERWDIQFRHRGLALQQGHTYTVKFTVTASRACKIYPKIGDQGDPYDEYWNMNQQWNFLELQANTPKTVTQTFTQTKGDKKNVEFAFHLAPDKTTSEAQNPASFQPITYTFDEIYIQDPQFAGYTEDPPEPTNVVRLNQVGFYPNADKIATVATSSTTPINWQLVNSTGAAVLTGKSTVKGADRASGDNVHIIDFSSYTTPGTDYKIVTDVSVTKAGDNESMKFNIGDDLFTQMKYDSMKYFYHNRSAIPIQMPYCDQSQWARPAGHTTDILAPDPTKDYKANYTLDVTGGWYDAGDHGKYVVNGGIATWTVMNAYERALHMGGDTSVAPFKDGSLAIPEAEVYPDILDEARYQLINMKTLLNSQVPAGKYAGMAHHKAHDERWTALAVRPDQDTMKRWLQPPSTAATLNLAAIAAQSSRLWKQFDSAFATKCLTAAETARDAAVAHPEIYATMEQGAGGGAYGDNYVLDDFYWAACELYATTGSDKYLNYIKSSKHYLEMPTELTGGENTGITGAFDWGCTAGMGTITLALVPTKLPAADVATAKANIQAAADKFISISKAQGYGVPLEEKVISSPFDASVVKGFQWGSNSFVINEAIVMSYAYEFSDVNGTKNNKYINGALTAMDYLLGRNPNIQSYITGYGDNPLENPHHRFWAYQADNTFPKPPPGCLSGGPNSGLQDPWVKGSGWQPGERPAEKCFMDNIESWSTNEITINWNAPLVWISAYLDEKGPEIGGSVTPPTNLGDVNGDGNKDALDFAALKKALLSQDTSTINVANADINKDGSIDAVDFALLKSFLLGKITQHHHHHH
notes: Expressed in E. coli and used as cell lysate or purified; also called CelE-Dc
binding result [3]: binds
